Data as given in paper PMC11049809, “Determinants of mer Promoter Activity from Pseudomonas aeruginosa”.
Changes are numbered by the printed parent chain.

T1: MerR (Tn501) (Pseudomonas aeruginosa (Tn501), UniProt P0A183 1-144)
T1 sequence: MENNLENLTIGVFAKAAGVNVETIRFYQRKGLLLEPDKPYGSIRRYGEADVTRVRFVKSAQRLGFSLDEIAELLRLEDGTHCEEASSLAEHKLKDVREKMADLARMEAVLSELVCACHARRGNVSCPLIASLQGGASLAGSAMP

B1: Pmer-M14 (dsDNA)
DNA 1: TTGACTCCGTACATGAGTACGGTAAGGT
DNA 2: ACCTTACCGTACTCATGTACGGAGTCAA
B2: Pmer-M7 (dsDNA)
DNA 1: TTGACTCCGTACATGAGACGGAAGTAAGGT
DNA 2: ACCTTACTTCCGTCTCATGTACGGAGTCAA
B3: Pmer-M11 (dsDNA)
DNA 1: TTGACTCCGTACATGAGTACGGAATAAGGT
DNA 2: ACCTTATTCCGTACTCATGTACGGAGTCAA
B4: Pmer-M10 (dsDNA)
DNA 1: B3 DNA 1 with A24G
DNA 2: B3 DNA 2 with T7C
B5: Pmer-M1 (dsDNA)
DNA 1: TTGACTCGTACATGAGTACGGAAGTAAGGT
DNA 2: ACCTTACTTCCGTACTCATGTACGAGTCAA
B6: Pmer-M4 (dsDNA)
DNA 1: TTGACTCCGTACTGAGTACGGAAGTAAGGT
DNA 2: ACCTTACTTCCGTACTCAGTACGGAGTCAA
B7: Pmer-M12 (dsDNA)
DNA 1: TTGACTCCGTACATGAGTACGGGTAAGGT
DNA 2: ACCTTACCCGTACTCATGTACGGAGTCAA

Target: T1, MerR (Tn501)
Assay: EMSA; 0-600 nM MerR, 30 nM DNA, no Hg stated; 10 mM Tris-HCl pH 8.0, 50 mM KCl, 5 mM MgCl2, 10% glycerol, 25 C 10 min; 8% native PAGE, 80 V 45 min
Settings: protein: recombinant; chain copies: 2; blunt

Row | Binder | binding result
1 | B1 | binds
2 | B2 | no binding
3 | B3 | binds
4 | B4 | binds
5 | B5 | binds
6 | B6 | no binding
7 | B7 | binds
